# Patent publication US20240294593A1 (Genentech, published 2024)
# Tests used:
# human PD-1-His [1] = target: T1, human PD-1-His (human, UniProt Q15116 25-167, limits assumed); assay: Octet (BLI), AHC biosensors capture the bivalent mAb, dipped into multiple concentrations of PD-1; KDapp per legend
# T1 construct: Antigen of the Octet assays; not shown: His tag
# human PD-1-His [2] = target: T1, human PD-1-His; assay: Octet (BLI), AHC capture of the bivalent mAb, PD-1 in solution
# human PD-1-His [3] = target: T1, human PD-1-His; assay: Octet
# T1 sequence (Q15116 25-167 limits assumed): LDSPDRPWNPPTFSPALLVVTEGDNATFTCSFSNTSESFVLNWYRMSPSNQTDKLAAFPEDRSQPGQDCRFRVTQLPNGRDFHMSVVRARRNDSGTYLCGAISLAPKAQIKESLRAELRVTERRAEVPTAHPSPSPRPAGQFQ
Binder,Kd (human PD-1-His [1]) [nM],koff (human PD-1-His [2]) [s⁻¹],kon (human PD-1-His [2]) [M⁻¹ s⁻¹],Kd (human PD-1-His [3]) [nM],koff (human PD-1-His [3]) [s⁻¹],kon (human PD-1-His [3]) [M⁻¹ s⁻¹]
"H1.204_L1.1 (XENP32820) (antibody, human IgG1, kappa, V domains shown, VH substitution R109Q/L110Q/W112F/S113A (Xencor #); R97Q/L98Q/W100F/S100aA (Kabat); also called mAb C[PD1]_H1.204_L1.1_IgG1_PVA_/S267K) VH: EVQLVESGGGLVQPGGSLRLSCAASGFTFSSFGMHWVRQAPGKGLEWVSYISSGSSIIYYADSVKGRFTISRDNAKNSLYLQMNSLRAEDTAVYYCARGGQQVFAPDYWGQGTLVTVSS VL: DIVMTQSPDSLAVSLGERATINCKSSQSLLHSGNQKNYLTWYQQKPGQPPKLLIYWASTRESGVPDRFTGSGSGTDFTLTISSLQAEDVAVYYCQNDYSYPFTFGSGTKLEIKR",26.2,0.00404,154000,–,–,–
"H1_L1.133 (antibody, V domains shown, also called VL-Y100D; Kabat 94) VH: EVQLVESGGGLVQPGGSLRLSCAASGFTFSSFGMHWVRQAPGKGLEWVSYISSGSSIIYYADSVKGRFTISRDNAKNSLYLQMNSLRAEDTAVYYCARGGRLVWSPDYWGQGTLVTVSS VL: DIVMTQSPDSLAVSLGERATINCKSSQSLLNSGNQKNYLTWYQQKPGQPPKLLIYWASTRESGVPDRFTGSGSGTDFTLTISSLQAEDVAVYYCQNDYSDPFTFGSGTKLEIKR",–,–,–,405,0.0264,65100
"H1_L1.127 (antibody, V domains shown, also called VL-Y100H; Kabat 94) VH: EVQLVESGGGLVQPGGSLRLSCAASGFTFSSFGMHWVRQAPGKGLEWVSYISSGSSIIYYADSVKGRFTISRDNAKNSLYLQMNSLRAEDTAVYYCARGGRLVWSPDYWGQGTLVTVSS VL: DIVMTQSPDSLAVSLGERATINCKSSQSLLNSGNQKNYLTWYQQKPGQPPKLLIYWASTRESGVPDRFTGSGSGTDFTLTISSLQAEDVAVYYCQNDYSHPFTFGSGTKLEIKR",–,–,–,55.5,0.00741,133000
"H1_L1.128 (antibody, V domains shown, also called VL-Y100L; Kabat 94) VH: EVQLVESGGGLVQPGGSLRLSCAASGFTFSSFGMHWVRQAPGKGLEWVSYISSGSSIIYYADSVKGRFTISRDNAKNSLYLQMNSLRAEDTAVYYCARGGRLVWSPDYWGQGTLVTVSS VL: DIVMTQSPDSLAVSLGERATINCKSSQSLLNSGNQKNYLTWYQQKPGQPPKLLIYWASTRESGVPDRFTGSGSGTDFTLTISSLQAEDVAVYYCQNDYSLPFTFGSGTKLEIKR",–,–,–,186,0.0911,490000
"H1.206_L1.1 (XENP32822) (antibody, human IgG1, kappa, V domains shown, VH substitution W112L (Xencor #) but W100F in the Kabat column: the two columns disagree; also called mAb C[PD1]_H1.206_L1.1_IgG1_PVA_/S267K) VH: EVQLVESGGGLVQPGGSLRLSCAASGFTFSSFGMHWVRQAPGKGLEWVSYISSGSSIIYYADSVKGRFTISRDNAKNSLYLQMNSLRAEDTAVYYCARGGRLVLSPDYWGQGTLVTVSS VL: DIVMTQSPDSLAVSLGERATINCKSSQSLLHSGNQKNYLTWYQQKPGQPPKLLIYWASTRESGVPDRFTGSGSGTDFTLTISSLQAEDVAVYYCQNDYSYPFTFGSGTKLEIKR",34.2,0.00505,148000,–,–,–
"H1_L1.129 (antibody, human IgG1, kappa, V domains shown, also called VL-Y100W; Kabat 94) VH: EVQLVESGGGLVQPGGSLRLSCAASGFTFSSFGMHWVRQAPGKGLEWVSYISSGSSIIYYADSVKGRFTISRDNAKNSLYLQMNSLRAEDTAVYYCARGGRLVWSPDYWGQGTLVTVSS VL: DIVMTQSPDSLAVSLGERATINCKSSQSLLNSGNQKNYLTWYQQKPGQPPKLLIYWASTRESGVPDRFTGSGSGTDFTLTISSLQAEDVAVYYCQNDYSWPFTFGSGTKLEIKR",–,–,–,9.44,0.001,106000
"H1.207_L1.1 (XENP32823) (antibody, human IgG1, kappa, V domains shown, VH substitution W112F/S113T (Xencor #); W100F/S100aT (Kabat); also called mAb C[PD1]_H1.207_L1.1_IgG1_PVA_/S267K) VH: EVQLVESGGGLVQPGGSLRLSCAASGFTFSSFGMHWVRQAPGKGLEWVSYISSGSSIIYYADSVKGRFTISRDNAKNSLYLQMNSLRAEDTAVYYCARGGRLVFTPDYWGQGTLVTVSS VL: DIVMTQSPDSLAVSLGERATINCKSSQSLLHSGNQKNYLTWYQQKPGQPPKLLIYWASTRESGVPDRFTGSGSGTDFTLTISSLQAEDVAVYYCQNDYSYPFTFGSGTKLEIKR",20.5,0.00151,73600,–,–,–
"H1.211_L1.1 (XENP32827) (antibody, human IgG1, kappa, V domains shown, VH substitution W112F/S113A (Xencor #); W100F/S100aA (Kabat); also called mAb C[PD1]_H1.211_L1.1_IgG1_PVA_/S267K) VH: EVQLVESGGGLVQPGGSLRLSCAASGFTFSSFGMHWVRQAPGKGLEWVSYISSGSSIIYYADSVKGRFTISRDNAKNSLYLQMNSLRAEDTAVYYCARGGRLVFAPDYWGQGTLVTVSS VL: DIVMTQSPDSLAVSLGERATINCKSSQSLLHSGNQKNYLTWYQQKPGQPPKLLIYWASTRESGVPDRFTGSGSGTDFTLTISSLQAEDVAVYYCQNDYSYPFTFGSGTKLEIKR",19,0.00252,133000,–,–,–
"H1.212_L1.1 (XENP32828) (antibody, human IgG1, kappa, V domains shown, VH substitution R109T/L110K/W112F (Xencor #); R97T/L98K/W100F (Kabat); also called mAb C[PD1]_H1.212_L1.1_IgG1_PVA_/S267K) VH: EVQLVESGGGLVQPGGSLRLSCAASGFTFSSFGMHWVRQAPGKGLEWVSYISSGSSIIYYADSVKGRFTISRDNAKNSLYLQMNSLRAEDTAVYYCARGGTKVFSPDYWGQGTLVTVSS VL: DIVMTQSPDSLAVSLGERATINCKSSQSLLHSGNQKNYLTWYQQKPGQPPKLLIYWASTRESGVPDRFTGSGSGTDFTLTISSLQAEDVAVYYCQNDYSYPFTFGSGTKLEIKR",30.8,0.00469,152000,–,–,–
"H1.209_L1.1 (XENP32825) (antibody, human IgG1, kappa, V domains shown, VH substitution L110F/W112F (Xencor #); L98F/W100F (Kabat); also called mAb C[PD1]_H1.209_L1.1_IgG1_PVA_/S267K) VH: EVQLVESGGGLVQPGGSLRLSCAASGFTFSSFGMHWVRQAPGKGLEWVSYISSGSSIIYYADSVKGRFTISRDNAKNSLYLQMNSLRAEDTAVYYCARGGRFVFSPDYWGQGTLVTVSS VL: DIVMTQSPDSLAVSLGERATINCKSSQSLLHSGNQKNYLTWYQQKPGQPPKLLIYWASTRESGVPDRFTGSGSGTDFTLTISSLQAEDVAVYYCQNDYSYPFTFGSGTKLEIKR",28.2,0.00489,173000,–,–,–
"H1.208_L1.1 (XENP32824) (antibody, human IgG1, kappa, V domains shown, VH substitution L110S/W112F (Xencor #); L98S/SW100F (Kabat); also called mAb C[PD1]_H1.208_L1.1_IgG1_PVA_/S267K) VH: EVQLVESGGGLVQPGGSLRLSCAASGFTFSSFGMHWVRQAPGKGLEWVSYISSGSSIIYYADSVKGRFTISRDNAKNSLYLQMNSLRAEDTAVYYCARGGRSVFSPDYWGQGTLVTVSS VL: DIVMTQSPDSLAVSLGERATINCKSSQSLLHSGNQKNYLTWYQQKPGQPPKLLIYWASTRESGVPDRFTGSGSGTDFTLTISSLQAEDVAVYYCQNDYSYPFTFGSGTKLEIKR",65.5,0.00509,77700,–,–,–
"H1_L1.132 (antibody, V domains shown, also called VL-Y100Q; Kabat 94) VH: EVQLVESGGGLVQPGGSLRLSCAASGFTFSSFGMHWVRQAPGKGLEWVSYISSGSSIIYYADSVKGRFTISRDNAKNSLYLQMNSLRAEDTAVYYCARGGRLVWSPDYWGQGTLVTVSS VL: DIVMTQSPDSLAVSLGERATINCKSSQSLLNSGNQKNYLTWYQQKPGQPPKLLIYWASTRESGVPDRFTGSGSGTDFTLTISSLQAEDVAVYYCQNDYSQPFTFGSGTKLEIKR",–,–,–,37,0.00615,166000
"H1.210_L1.1 (XENP32826) (antibody, human IgG1, kappa, V domains shown, VH substitution R109W/L110H/W112F (Xencor #); R97W/L98H/W100F (Kabat); also called mAb C[PD1]_H1.210_L1.1_IgG1_PVA_/S267K) VH: EVQLVESGGGLVQPGGSLRLSCAASGFTFSSFGMHWVRQAPGKGLEWVSYISSGSSIIYYADSVKGRFTISRDNAKNSLYLQMNSLRAEDTAVYYCARGGWHVFSPDYWGQGTLVTVSS VL: DIVMTQSPDSLAVSLGERATINCKSSQSLLHSGNQKNYLTWYQQKPGQPPKLLIYWASTRESGVPDRFTGSGSGTDFTLTISSLQAEDVAVYYCQNDYSYPFTFGSGTKLEIKR",15.9,0.00244,154000,–,–,–
"H1.205_L1.1 (XENP32821) (antibody, human IgG1, kappa, V domains shown, VH substitution R109K/W112F/S113A (Xencor #); R97K/W100F/S100aA (Kabat); also called mAb C[PD1]_H1.205_L1.1_IgG1_PVA_/S267K) VH: EVQLVESGGGLVQPGGSLRLSCAASGFTFSSFGMHWVRQAPGKGLEWVSYISSGSSIIYYADSVKGRFTISRDNAKNSLYLQMNSLRAEDTAVYYCARGGKLVFAPDYWGQGTLVTVSS VL: DIVMTQSPDSLAVSLGERATINCKSSQSLLHSGNQKNYLTWYQQKPGQPPKLLIYWASTRESGVPDRFTGSGSGTDFTLTISSLQAEDVAVYYCQNDYSYPFTFGSGTKLEIKR",26.8,0.00296,111000,–,–,–
